From patent US9623039B2, “Treatment and prevention of pathological conditions using iduna related techniques and compositions” (VALTED, LLC, priority 2010, dated 2017)

Key:
PAR polymer = experiment: Competition binding of unlabeled PAR polymer against [32P]-labeled PAR polymer
Protocol: The affinity of Iduna and Iduna-YRAA for PAR binding was determined by a competition assay with increasing concentrations of unlabeled PAR polymer against 2.5 nM [^32P]-labeled PAR polymer (mean size of 40 ADP-ribose units) (FIG. 29). […] The PAR polymer synthesized by in vitro automodification of PARP-1 has a mean length of 40 ADP-ribose residues and accordingly the concentration of PAR is given as a function of polymer molecules with a mean size of 40 ADP-ribose units. These concentrations of PAR polymers are within the range of polymer concentrations found in intact cells during NMDA excitotoxicity and N-methyl-N-nitro-N-nitrosoguanidine (MNNG) toxicity. PAR polymer fails to bind to Iduna-YRAA (FIG. 29). […] The observed Kd is 10 times less than the PAR polymer concentration found after NMDA-induced excitotoxicity in cortical neurons.
Nitrocellulose PAR-binding Assay: Synthetic peptides or purified proteins were diluted in TBS-T buffer (1 μg/μl) and loaded onto a nitrocellulose membrane (0.05 μm) using a dot blot manifold system (Life Technologies). The membranes were washed once with TBS-T buffer, removed from the manifold and air dried. The membranes were then incubated in 10 ml of TBS-T buffer containing an indicated concentration of both [^32P]-labeled automodified PARP-1 and [^32P]-labeled PAR polymer for 3 h at room temperature with constant shaking. The membranes were washed with TBS-T buffer at 4° C. until no radioactivity could be detected in the waste. Finally, the membrane was air dried and subjected to autoradiography on Bio-Max MR (Kodak) films or analyzed by Cerenkov counting using an Instant Imager system (Perkin Elmer).

primary cortical neurons [1] = experiment: NMDA excitotoxicity cell death in primary cortical neurons; assay type: cell-based, mouse; conditions: NMDA 100 μM for 5 min, Iduna overexpression
Protocol: (§1) Primary Neuronal Culture Preparation: Primary cortical cell cultures were prepared from gestational day 15 mouse embryos as previously described. Experiments were performed at DIV (day in vitro) 14. Under these conditions, neurons represent 90% of the cells in the culture. Mature neurons were washed with control salt solution (CSS) containing 120 mM NaCl, 5.4 mM KCl, 1.8 mM CaCl2, 25 mM Tris-HCl pH 7.4 and 15 mM D-glucose. To induce NMDA-mediated […], 50 μM NMDA and 10 μM glycine in CSS solution was applied to the cells for 5 min, then the cells were washed and re-supplemented with minimum essential medium containing 10% horse serum. […]
(§2) Cell Death Assessment: Following exposure of neuronal cultures to the various treatments neuronal survival was quantified and presented as percent of cell death. Percent cell death was determined as the ratio of live-to-dead cells compared with the percent cell death in control wells to account for cell death attributable to mechanical stimulation of the cultures. Quantification of neuronal survival was determined by staining treated cultures with 5 μM Hoechst 33342 and 2 μM propidium iodide (PI) (Invitrogen, Carlsbad, Calif.). […] The numbers of total and dead (PI positive) cells were counted by automated computer assisted software (Axiovision 4.6, Zeiss, Germany). […]

cortical neurons = experiment: MNNG-induced cell death in cortical neurons; assay type: cell-based, mouse; conditions: MNNG 50 μM for 15 min
Protocol: as §1, §2

cytochrome c = experiment: Cytochrome c release after NMDA excitotoxicity; assay type: cell-based, mouse; conditions: NMDA 500 μM for 5 min, 4 hrs
Protocol: FIG. 53—Immunoblot showing release of CYT C. Mouse cortical neurons over-expressing GFP, GFP-Iduna or GFP-Iduna-YRAA were subjected to NMDA-excitotoxicity (500 μM for 5 min) on DIV 14. Following subcellular fractionation into mitochondrial and cytosolic (post-mitochondrial) fractions, CYT C release was monitored 4 hrs following NMDA stimulation. COX IV was used as a marker for mitochondria and GAPDH was used a marker for cytosol. Data were repeated three times with similar results.
FIG. 54—Quantification of cytochrome c release from mitochondria following NMDA-toxicity. […] Values of optical density were quantified using Image J software and the data were normalized to the values of GAPDH in the cytosol.

primary cortical neurons [2] = experiment: Mitochondrial membrane potential (TMRM live imaging); assay type: cell-based, mouse; conditions: TMRM fluorescence, NMDA 500 μM
Protocol: Mitochondrial Membrane Potential (Δψm): TMRM was used to determine Δψm. Mouse neuronal cultures were loaded with TMRM (100 nM) for 20 min. Thereafter, live-cell imaging was captured using LSM 510 Live Confocal microscope (Carl Zeiss, Germany) for 20 minutes and fluorescence values for TMRM were calculated using LSM 510 confocal software (Carl Zeiss). Following 50-100 seconds base-line stabilization, NMDA (500 μM for 5 min) was directly perfused during image acquisition on the confocal microscopic stage using a peristaltic pump (Gilson). Live images were acquired at an interval of 20 s using a low laser power to avoid excessive bleaching. Due to spectral overlap with GFP, plasma membrane potential could not be determined.

MCF7 cells = experiment: Cell cycle analysis after γ-irradiation; assay type: cell-based, human; conditions: γ-irradiation 2 Gy
Protocol: Cell cycle analysis. Studies were performed to evaluate the cell cycle response of each stable cell lines. Cells were plated onto 150 mm culture dishes and cultured for 24 h at 37° C. with fresh growth medium. Following replacement of growth medium, cells were irradiated at 2 Gy with a Gammacell irradiator. After 12 h, cells were washed once with PBS and incubated with PBS containing 0.2% EDTA for 5 min at 37° C., thereafter scraped with fresh growth medium and collected at 500×g at 4° C. Collected cells were washed once with ice cold PBS and then fixed with 70% ethanol. Cells were washed once with PBS containing 1% FBS and resuspended into propidium iodide (PI) staining buffer (PBS, pH 7.4, 50 μg/ml PI, 1% FBS, 100 μg/ml RNase) for 30 min at 37° C. Cells were monitored for DNA content by a flow cytometry (BD Biosciences) and then data were analyzed with FlowJo using Dean-Jett-Fox model for the quantification of each cell cycle phase.

B1: Iduna: novel NMDA-induced cell survival protein, PAR-dependent E3 ligase; 359 amino acids (protein)
chain: MEMAGCGEIDHSINMLPTNKKANESCSNTAPSLTVPECAICLQTCVHPVSLPCKHVFCYLCVKGASWLGKRCALCRQEIPEDFLDKPTLLSPEELKAASRGNGEYAWYYEGRNGWWQYDERTSRELEDAFSKGKKNTEMLIAGFLYVADLENMVQYRRNEHGRRRKIKRDIIDIPKKGVAGLRLDCDTNTVNLARESSADGADSGSAQTGASVQLAVPSSTRPLTSVDGQLTSPVTPSPDAGISLEDSFAHLQLSGDSIAERSHRGEGEEDHESPSSGRVPDTSVEETESDASSDSEDAPVVVAQHSLTQQRPLVPNGNQTVADQSDRSGTDRSVAGGGTMSVNVRSRRPDGQCTVIEV
PAR polymer; competitive binding curve
  maximum binding capacity (Bmax): 3.04 ± 0.16 µmol
PAR polymer; homologous competitive binding curve, Cheng-Prusoff equation, read-out: dissociation constant (Kd)
  Kd: 12 nM
PAR polymer; unlabeled PAR polymer against 2.5 nM [32P]-labeled PAR polymer, mean size 40 ADP-ribose units, read-out: EC50 of wild type Iduna for PAR polymer
  EC50: 14.5 ± 0.13 nM
Primary cortical neurons [1]
  cell death %: 23.0±1.8%
Cortical neurons
  protection against MNNG-induced cell death: protects neuronal cultures against MNNG-induced cell death
Cytochrome c
  cytochrome c translocation from mitochondria to the cytoplasm: reduction of cytochrome c translocation from mitochondria to the cytoplasm
Primary cortical neurons [2]
  NMDA induced loss of Δψm: prevents NMDA induced loss of Δψm
MCF7 cells
  cell cycle arrest and cell survival: rescues cells from G1 arrest in the cell cycle and promotes cell survival
